We go through 17 sequences from a protein production outcome set (Wang et al. 2014).
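Note: failed if final PepcDB status was selected cloned or expressed and not failed if soluble or beyond.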

The data set is described as follows: label from the status in PepcDB records.
Consider “MDPLLLIGAITAGGVLIGGGVHFVPVGGAPAAMATATGVGTGTAMLAAGAGLTGLITAAAMTGQSPLMIMAAGAVGSMLMIGITMLVGNLIYVYGVGTVPVSAKVAVDPLTGMEQEKYVTPGTEGHGLPTVCFVSGIIGGALGGIGGGLIYWALNEALKTLSYGAIGAAGVAAIFAVGIFFINAVIASYNIGGTIEGFHDPKFKRIGRGIVACLIASIVAGALSTLLVYGGVF”, for which the protein production result is listed as “failed”. On to “MDPNTVSSFQVDCFLWHVRKRLADQELGDAPFLDRLRRDQKSLRGRGNTLGLDIETATRAGKQIVERILEEEPDEALKMPASRYLTDMTLEEMSRDWFMLMPKQKVAGSLCIKMDQAIMDKTIILKANFSVILDRLETLILLRAFTEEGAIVGEISPLPSLPGHTGEDVKNAIGVLIGGLEWNDNTVRVSETIQRFAWRSSDEDGRLPLPPNQKRKMARTIESEV”, for which the protein production result was “not failed”. Turning to “MDPSLHARPHPRRRLRCALLALACGTGAAHAATPPPYLQTQRSFEQRAADLVSRMTLEEKAAQMQNAAPAIPRLGVPAYDWWNEALHGVARAGGATVFPQAIGMAATFDLPLMHEVATAISDEARAKHHRFLRQHQHARYQGLTFWSPNINIFRDPRWGRGQETYGEDPFLTARMGVTFVQGLQGEGSDAPKNAQGERYRKLDATAKHFAVHSGPEADRHHFDARPSQRDLYETYLPAFEALVKDGKVDAVMGAYNRVYGESASASKFLLQDVLRQQWGFKGYVVSDCWAIVDVWKHHKIVATREQAAALAVTHGTELECGEEYSTLPAAVHQGLIDEAQIDTALQTLMTARMRLGMFDPPGQLPWSKIPASVNQSPAHDALARRTARESLVLLKNDGLLPLSRATLKRIAVIGPTADDTMALLGNYYGTPAAPVTVLQGIRAAAPNAQVLYARGADLVEGRNDPAATPLIEPHYLRPSANSPERGLRGEYFRNRDLSGKPALVRVDAQIGFTWDRGSPTDNLLARGEAGPSEAVPADNFSIRWSGQLVPPTTGTYHLEAAADDGVRLYLDGKPVIDRWSTSDRLHADGVDVQLQAGRSYDLRLDYFEGERDAAVRLAWRQPGAKPPLQEALDVARSADVVVFVGGLTGDVEGEEMKVSYPGFAGGDRTDLRLPKPQRELLEALQATGKPVVAVLTAGSALAVDWAQQHVPAILLAWYPGQRGGTAVADTLFGDANPGGRLPVTFYKESETLPAFDDYAMHGRTYRYFGGTPLYPFGHGLSYTQFAYSDLRLDRSTLTADGALTATVAVKNTGQRAGDEVVQLYLHPLKPQRERAGKELRGFQRLALQPGQQRELRFTINAKDALRIYDAQRKAYTVDPGAYEVQIGASSADIRARQRFTVTDK”, the protein production result is reported as “failed”. Then “MDQEAFLRERIEKAQAQLQKLRDENRVLRARQIMWGCIEGTIDVCQLGEKDLQDLSSVIDDYLDSLKSRIEYLKKNGEPSSSLPPRVLQDLNVKEDGDIPSMDGSHHQFETNRLTTITTTADACAPNITNNP”, with “failed”; and “MDQLYQLAQAMIHNDLAVLSNPNVTLMVSGVILCFLVMENGFIPTAFLPGDTLLILTGVLIYQDVLHMGIVPLLMVATFIGTAIGYLQGYFLGHTQMYHRLLSHIDDKHQKKALYLIDKYGILTLLVARYIPFVRTIYPYIIGATGVSWSRFLVINFISSVMWITPLVGFGYVISHSKLANEYQTQFMSIIVYLPIVLLVSGIVTLIYKWLRKKKKL”, with “failed”.

For the sequence “MDQPWNANIHYDALLDAMVPLGTQCVLDVGCGDGLLAARLARRIPYVTAVDIDAPVLRRAQTRFANAPIRWLHADIMTAELPNAGFDAVVSNAALHHIEDTRTALSRLGGLVTPGGTLAVVTFVTPSLRNGLWHLTSWVACGMANRVKGKWEHSAPIKWPPPQTLHELRSHVRALLPGACIRRLLYGRVLVTWRAPVLEHHHHHH”, the protein production entry is “failed”. Regarding “MDQQSIVSILMILATFGLYIGISIYNRARATSDFYVASRGVPPFWNGMAIGGDWMSAASFIGMAGTIMILGYDGLAYIMGWTGGYLFLTFLFAPQLRKYGRYTVPEFIGDRYGSNTARLIAAIATIIISFTYIIGQLSGSGVVIGRILNIPAMYGTMIGVVVIAIYATLGGMKGITWTQVAQYIILIVAYIIPIVFMSLQLSGNPFPWLTYGNFISQLDGLDQELGLSQILQPFMESDKSQFIALMFTLMVGTAALPHVIVRFYTVTTMKAARWSGAWALIFIALLYLSAPAYAAFSRFILMTQVANQPIDQLPAWTEAWINTGLLEMADANGDGILQWEELRISNDIVVMATPEIANLGMFVIGLVAAGAMAAALSTAGGLLITISSSFAHDIYYRLMNPKASDQKRLLAGRIAIVLATIVAGVVALDPPGVITQIVAWAFGLAGGAFFPVLLLGVWWKRANAKGAIAGMLSGLAVTLVYIFLARTGTFTLFGIQDTGAGLIGVPVNLFVTIVVSLMTAAPSQKLQDEVVDLRYPEQMTYKDGEVWMDESSGK”, the protein production result is on record as “failed”. As to “MDRECERDPYYDDLKVAKRAIEQMEMVAMMEGIPKFCPCGGSIVDTRKDEKRYYQCEKFKDDRTDLMHIRKLWDKAMEEEVSSLRESVDYNRKKVLSHEYLIEEMQKELKAHRAEIVNVSKVVFRNPMAPKK”, the protein production entry is listed as “failed”. In the case of “MDRIKSWEYDDVYNKFAIKDLDKSSFKRGSHIPIKVRKVFECEDIKYGDKKKITLIYKGEAFPAEIEGEIKGRIRMNWPKLIPKMKEVFKNEINDFEDSKELSVRVPRLKFTKETAIKYDVEMKTKYSHDVLCELERLDIDVENKTIEEINEVGEVIERVVKARKNQNKFREALFKRDGKCKICGLAHKELLIASHIKPWSKSTPEEKLNPFNGFLLCPNHDSLFDKHLISFKDNGEIIISKRLSEKEQELLSINKDIMINIEEGNKKFLKEHRDVFCKIEKAFDLEKELAISNKEIYNVELEV”, the protein production entry is on record as “failed”. As for “MDRLPILKLGDCLLVTIQVELHDRLALTLQDDLTTMIANTGARGVLIDISALDIVDSFIARVLGNIAAMSRVLGAETMVVGMQPAVAITLVELGVTWQHMHTALSVERGLERLKVLIAERHTLRGHSPRGKRGGGVDGSRH”, the protein production entry was “failed”. On to “MDRLTEMEAFANVVDQGGFTDAAKKMGISKSAVSKHVSSLEARLGARLLNRTTRRVSPTEIGLAYYDRARRVLNDAGEADALVTSMQSAPSGLLRISVATDFGVNHLSPVLSDFLAEFPDITVNMVLNNRYVELISEGFDMAVRIGELEDSTLRARKLTETTKRMIASPKYFEKYGHPQKIDDLNEHKLLHYSSQASGNVWKLTAPSGEKRQVRTAGWLSVNDGQSLLNAAISGLGIAYLPCYLFAEAMEQGLVEDAMPSLPDEVQGIYAVYPPGRFTQPKVRAFIDFLVHSFADKGPMNW”, for which the protein production entry is on record as “not failed”. Under “MDSEAQQISLLIGKEDRYGRVEVNLMEVEPMNAEDFNAKLDVSFKAWKDQGKKGIWIKLPCELSSLVDIAMKKGFTYHHAENEYAVLSSWISDLPNTIPANASHRIGIGALVLNKNREVLAVQEIDGVFKDTGLWKLPTGVIQENRENFRYMANICLKRSQEKEYLGFSNVLTKNSTGKESYLYCSTDHAYFLKGKPDHSSTSLFTTLLRKCFSI” stands “failed”; under “MDSKDESSHVWPTSAEHEQNAAQVHFVPDTGTVAQIVYTDDQVRPPQQVVYTADGASYTSVDGPEHTLVYIHPVEAAQTLFTDPGQVAYVQQDATAQQASLPVHNQVLPSIESVDGSDPLATLQTPLGRLEAKEEEDEDEDEDTEEDEEEDGEDTDLDDWEPDPPRPFDPHDLWCEECNNAHASVCPKHGPLHPIPNRPVLTRARASLPLVLYIDRFLGGVFSKRRIPKRTQFGPVEGPLVRGSELKDCYIHLKVSLDKGDRKERDLHEDLWFELSDETLCNWMMFVRPAQNHLEQNLVAYQYGHHVYYTTIKNVEPKQELKVWYAASYAEFVNQKIHDISEEERKVLREQEKNWPCYECNRRFISSEQLQQHLNSHDEKLDVFSRTRGRGRGRGKRRFGPGRRPGRPPKFIRLEITSENGEKSDDGTQDLLHFPTKEQFDEAEPATLNGLDQPEQTTIPIPQLPQETQSSLEHEPETHTLHLQPQHEESVVPTQSTLTADDMRRAKRIRLELQNAALQHLFIRKSFRPFKCLQCGKAFREKDKLDQHLRFHGREGNCPLTCDLCNKGFISSTSLESHMKLHSDQKTYSCIFCPESFDRLDLLKDHVAIHINDGYFTCPTCKKRFPDFIQVKKHVRSFHSEKIYQCTECDKAFCRPDKLRLHMLRHSDRKDFLCSTCGKQFKRKDKLREHMQRMHNPEREAKKADRISRSKTFKPRITSTDYDSFTFKCRLCMMGFRRRGMLVNHLSKRHPDMKIEEVPELTLPIIKPNRDYFCQYCDKVYKSASKRKAHILKNHPGAELPPSIRKLRPAGPGEPDPMLSTHTQLTGTIATPPVCCPHCSKQYSSKTKMVQHIRKKHPEFAQLSNTIHTPLTTAVISATPAVLTTDSATGETVVTTDLLTQAMTELSQTLTTDYRTPQGDYQRIQYIPVSQSASGLQQPQHIQLQVVQVASATSPHQSQQSTVDVGQLHDPQPYPQHAIQVQHIQVSEPTASAPSSAQVSGQPLSPSAQQAQQGLSPSHIQGSSSTQGQALQQQQQQQQNSSVQHTYLPSAWNSFRGYSSEIQMMTLPPGQFVITDSGVATPVTTGQVKAVTSGHYVLSESQSELEEKQTSALSGGVQVEPPAHSDSLDPQTNSQQQTTQYIITTTTNGNGSSEVHITKP”, “failed”. “MDSLTSLTSFVRTAETLSFVQAARLLGISASAVGKNVARLEHKLGVRLFNRSTRNVSLTAEGAAFLTRCQSILEQIQEAESELTSSLSQPTGKLRISLPVIGYRLLLPALTAFSRLYPQVELDLDFSDRLVNLIDEGVDVAIRSGELADSRLIARKLGGFRFVLCASPAYLAEYGAPDSPAELAAHKCIFFRFPATGLIQPWELRGMRLTGDFRSAAVMTVNNIEAAIRLSAAGMGIAYVPDFVVREAMDEGQLQEVLPGCCIKDGHFSVLWPASRYLSPRIRCFIDFMAAAEIPLSPASAPPPLVSNNLR”: the protein production entry is “failed”. With “MDSSLANINQIDVPSKYLRLLRPVAWLCFLLPYAVGFGFGITPNASLQHAVLGLLSFAFWMAFSFTINALYDRDVDRLHDGRVKDLNLSMQPLVTGEISVREAWLYCIAFLALSLATAAAINEKFFLAMLGANIIGYVYSAPPRFKAWPVMDVICNALAAVLAFYAGLSIGGAEVPIAIYPAAFFLAATFYIPTAVSDYEFDKKAGLKNTPVFFGPERALKSLYPLSAITVILWAYVFLMAERIEIKVISPLIIAYTLIYTFIINSRWDGEKLNVSPNLILTPFGIISALFIAYGFAVISVLG”, the protein production result is “failed”. Under “MDSSSISSLLEDLKHSDALVREQATKKLWRIWFQQKGMYGLEKIDQSQKLLDAGEITEAEVMLTQLIQEQPDFAEAWNRRAFLYYSMGEYQKSLADCQMVIQINPVHFGALHGIGLCYAALGKYAKAIKAFKRALEIQPYSLVNQKLILECTFRLSLEHHHHHH” stands “failed”; under “MDTDFRVTGRNAAALFALTIHRGDGMVLLGMDWKNGRPPIDFVGFAIQYREPGTDFFKNVRNRIGFPGQPVPADGIRTTEAPIQKFRWVHFPFNADLPGKFLYRVTPKFMDAAGGLASGEAQEAELALMRETIPGKLNVAFTRGFVSSQAFVRNFAPDAPTIITLVPPVGDEGLDFVPTHADAERALAWMGFEARAETLDLLDRAQAAGAEVRVIAYDLNLPEVVTRLEALGPKLKIIIDDSARTDGHGRPDSPETKAAERLIASAGAANVKRQHMANLQHQKSIAVRGGGISTVLYGSTNLSWRGLYVQSNNSLAVHSEKAIDDYFTAFESYFTAKRAADFRSSASSAGWIDLGLDGVDAKVAFSPHSDANGRLDEIGADIDTAQSSVLFSLAFLGQMTRGAIGPALGRALERPEVHVMGIADAEVRAGNLGLNVLTPDNRRRVVRAAALTGNVPPPFLTEPSGLAGVDGNQRGTRMHHKFVVLDFDKPTARVYLGSYNFSNPADDENGENLVVVRDRTVATSYMIEALRMYDHYVFRVASEASDGPARPLELKRPPQPGGTPWFERDWTDPIRARDRELFARAE”, “failed”.
